# Source: patent US20200377604A1 (Genentech, published 2020)
# Biological target: T1, knob Fc F241R/F243S (Homo sapiens (Human), UniProt P0DOX5 223-449 = IgG part, F241R; F243S)
# T1 construct: Positions are EU numbers; the entry starts at 221; also called Knob F241R/F243S; F241R/F243S mutant knob
# Test: SPR (BioRad ProteOn), immobilized ligand Knob F241R/F243S, analyte Knob F241S/F243R at 6.25-200 nM
# Description: FIGS. 11A-11E are a series of the surface plasmon resonance (SPR) spectra curves from experiments using an immobilized ligand. The analyte was passed over the ligand and the homodimerization was monitored. Analyte concetrations were tested at 6.25 nM, 12.5 nM, 25 nM, 50 nM, 100 nM and 200 nM. The ligands were: (A) The knob wild-type, (B) hole wild-type, (C) knob F241R/F243S, (D) knob F241S/F243R, and (E) hole F241S/F243R.
# Using a BioRad ProteOn™ system, knob wild-type, hole wild-type, knob F241R/F243S, knob F241S/F243R, and hole F241S/F243R ligands were immobilized on an NHS activated sensor. The analyte, knob F241S/F243R, was passed over the sensor in 25 mM Tris 150 mM NaCl 0.05% Tween-20 pH 8.0. Analyte concentrations were 200 nM, 100 nM, 50 nM, 25 nM, 12.5 nM, and 6.25 nM. The ProteOnM chip was regenerated between each analyte concentration using 10 mM Glycine pH3. […] The Kd for the heterodimers is in the single digit nanomolar range in both cases.
binder,measurement,value
"knob Fc F241S/F243R (other, name in EU numbering, Positions are EU numbers; the entry starts at 221; This was the analyte in the SPR experiment; also called Knob F241S/F243R; F241S/F243R mutant knob) DKTHTSPPSPAPELLGGPSVSLRPPKPKDTLMISRTPEVTCVVVDVSHEDPEVKFNWYVDGVEVHNAKTKPREEQYNSTYRVVSVLTVLHQDWLNGKEYKCKVSNKALPAPIEKTISKAKGQPREPQVYTLPPSREEMTKNQVSLWCLVKGFYPSDIAVEWESNGQPENNYKTTPPVLDSDGSFFLYSKLTVDKSRWQQGNVFSCSVMHEALHNHYTQKSLSLSPGK",binding result,no binding (tested: 200 nM)
